Test results from patent US11813311B2, “Treatment and prevention of metabolic diseases” (Singapore Health Services PTE LTD., priority 2019, dated 2023).
Entries after “also recorded” stand apart in the source; their conditions may differ.

Key:
[1] = system: primary human hepatocytes; assay: Palmitate loading (lipotoxicity) of primary human hepatocytes; type: cell-based; settings: palmitate:BSA 6:1
Method: Palmitate:BSA conjugated solution in the ratio of 6:1 was prepared as described earlier (Alsabeeh et al., 2018). Palmitate (0.5 mM) conjugated in fatty acids free BSA was used to treated cells as described in figure legends; 0.5% BSA solution was used as control. […]
Primary human hepatocytes were seeded on 8-well chamber slides (1×10^4 cells/well). For this experiment, cells were not serum-starved prior to palmitate treatment. 24 hours following palmitate stimulation, cells were washed, incubated with 25 μM of DCFDA solution (ab113851, Abcam) for 45 minutes at 37° C. in the dark, and rinsed with dilution buffer according to the manufacturer's protocol. Live cells with positive DCF staining were imaged with filter set appropriate for fluorescein (FITC) using a fluorescence microscope (Leica). […]
(§1) Western blots were carried out on total protein extracts from hepatocytes and liver tissues. Hepatocyte and liver tissue lysates were homogenized in RIPA Lysis and Extraction Buffer (89901, Thermo Scientific) containing protease and phosphatase inhibitors (Roche). Protein lysates were separated by SDS-PAGE and transferred to PVDF membranes. Protein bands were visualized using the ECL detection system (Pierce) with the appropriate secondary antibodies: anti-rabbit HRP or anti-mouse HRP.

HSCs = assay: IL-11 expression and secretion by HSCs (RNA-seq, ELISA); type: cell-based, human; settings: for IL-11 secretion from HSCs: ELISA
Text: TGFβ1 stimulation of human hepatic stellate cells and antibody treatment in HFMCD: Sequenced libraries were demultiplexed using bcl2fastq v2.19.0.316 with the-no-lane-splitting option. Adapter sequences were then trimmed using trimmomatic^6 v0.36 in paired end mode with the options MAXINFO:35:0.5 MINLEN:35. Trimmed reads were aligned to the Homo sapiens GRCh38 using STAR′ v. 2.2.1 with the options—outFilterType BySJout-outFilterMultimapNmax 20-alignSJoverhangMin 8-alignSJDBoverhangMin 1-outFilterMismatchNmax 999-alignIntronMin 20-alignIntronMax 1000000-alignMatesGapMax 1000000 in paired end, single pass mode. Only unique alignments were retained for counting. Counts were calculated at the gene level using the FeatureCounts module from subread^8v. 1.5.1, with the options -O-s 2-J-T 8-p-R-G. The Ensembl release 86 hg38 GTF was used as annotation to prepare STAR indexes and for FeatureCounts.
The levels of IL-11 and MMP-2 in equal volumes of cell culture media were quantified using Human IL-11 Quantikine ELISA kit (D1100, R&D Systems) and Total MMP-2 Quantikine ELISA kit (MMP200, R&D Systems), respectively. Total secreted collagen in the cell culture supernatant was quantified using Sirius red collagen detection kit (9062, Chondrex). Total hydroxyproline content in the livers was measured using Quickzyme Total Collagen assay kit (Quickzyme Biosciences). Mouse serum levels of alanine aminotransferease (ALT), cholesterol, and triglycerides were measured using Alanine Transaminase Activity Assay Kit (ab105134, abcam), Cholesterol Assay Kit (ab65390, abcam), and Triglyceride Assay Kit (ab65336, abcam), respectively. Liver Triglycerides (TG) measurements were performed using triglyceride colorimetric assay kit (Ser. No. 10/010,303, Cayman). All ELISA and colorimetric assays were performed according to the manufacturer's protocol.

[2] = system: primary human hepatocytes; assay: Stimulation of primary human hepatocytes with IL11, hyperIL11, hyperIL6; type: cell-based; settings: for ERK and JNK (non-canonical signaling) activation: 2.5 ng/ml to 20 ng/ml
Method: Human hepatocytes (5200, ScienCell) were grown and maintained in hepatocyte media (5201, ScienCell) supplemented with 2% fetal bovine serum (FBS) and 1% Penicillin-streptomycin.
Primary human hepatocytes (5200, ScienCell) were maintained in hepatocyte medium ([…], ScienCell) supplemented with 2% fetal bovine serum, 1% Penicillin-streptomycin at 37° C. and 5% CO2. Hepatocytes (P2-P3) were serum-starved overnight unless otherwise specified in the methods prior to 24 hours stimulation with different doses of various recombinant proteins as described.
For surface IL11RA, IL6R, and gp130 analysis, primary human hepatocytes and THP-1 cells were stained with IL11RA, IL6R, or gp130 antibody and the corresponding Alexa Fluor 488 secondary antibody. Cell death analysis was performed by staining primary human hepatocytes with Dead Cell Apoptosis Kit with Annexin V FITC and PI (V13242, Thermo Fisher). PI+ve cells were then quantified with the flow cytometer (Fortessa, BD Biosciences) and analyzed with FlowJo version X software (TreeStar).
Alanine Aminotransferase (ALT) activity in the cell culture supernatant and mouse serum was measured using ALT Activity Assay Kit (ab105134, Abcam). Liver Glutathione (GSH) levels were measured using Glutathione Colorimetric Detection Kit (EIAGSHC, Thermo Fisher). Total hydroxyproline content in mouse livers was measured using Quickzyme Total Collagen assay kit (QZBtotco15, Quickzyme Biosciences). The levels of serum and liver triglycerides were measured using Triglyceride Assay Kit (ab65336, Abcam). Mouse serum levels of Aspartate Aminotransferase (AST) and cholesterol were measured using AST Assay Kit (ab105135, Abcam) and Cholesterol Assay Kit (ab65390; Abcam), respectively. All colorimetric assays were performed according to the manufacturer's protocol.
as §1

[3] = system: wild-type C57BL/6J and Col1a1-GFP reporter mice; assay: Daily subcutaneous injection of recombinant mouse IL-11; type: in vivo
Method: Recombinant mouse IL-11 (rmIL11) was reconstituted to a concentration of 50 μg ml^−1 in saline. Ten-week-old male wild-type C57BL/6J mice received daily subcutaneous injection of either 100 μg kg^−1 of rmIL11 in saline (n=19) or an identical volume of saline (n=15) for 21 days.
Ten week old male Col1a1-GFP reporter mice 19 and wild-type C57BL/6J mice received daily subcutaneous injection of either 100 μg/kg of recombinant mouse Il-11 (rmIl-11) or identical volume of saline for 21 days.

CCCCCCCCCCCCCCCC(=O)O [palmitate, Palmitate, reference compound]
IL11 secretion, FC vs control [1]: 28

bFGF: human bFGF recombinant protein, NASH stimulus
IL-11 secretion from HSCs (HSCs): induce IL-11 secretion

hyperIL6: IL6R:IL6 fusion protein, synthetic IL6 trans-signaling construct (R&D systems) [reference compound]
ERK and JNK (non-canonical signaling) activation ([2]; 24 h): did not activate | ALT in the media, fold change (FC) ([2]; 20 ng/ml): 0.9 | STAT3 activation ([2]; dose range, 24 h): dose-dependently induced STAT3 activation

CCL2: human CCL2 recombinant protein, NASH stimulus
IL-11 secretion from HSCs (HSCs): induce IL-11 secretion

PDGF
IL-11 secretion from HSCs (HSCs): induce IL-11 secretion

TGFβ1: human TGFβ1 recombinant protein, pro-fibrotic stimulus [reference compound]
IL-11 upregulation in HSCs (RNA-seq) (HSCs; TGFβ1 5 ng/ml, 24 h): 14.9 fold | IL-11 secretion from hepatocytes ([2]; TGFβ1 5 ng/ml, 24 h): robustly secreted IL-11

angiotensin II: human angiotensin (Sigma-Aldrich), NASH stimulus (DRVYIHPF; Angiotensin-2; UniProt P01019 25-32, looked up)
IL-11 secretion from HSCs (HSCs): induce IL-11 secretion

B1: rmIL11: Recombinant mouse IL-11 (UniProtKB: P47873) (protein)
chain: PGPPAGSPRVSSDPRADLDSAVLLTRSLLADTRQLAAQMRDKFPADGDHSLDSLPTLAMSAGTLGSLQLPGVLTRLRVDLMSYLRHVQWLRRAGGPSLKTLEPELGALQARLERLLRRLQLLMSRLALPQAAPDQPVIPLGPPASAWGSIRAAHAILGGLHLTLDWAVRGLLLLKTRL
expression of key pro-fibrotic and pro-inflammatory genes ([3]; 100 μg/kg daily s.c., 21 days): increased | hepatic collagen content ([3]; 100 μg/kg daily s.c., 21 days): increased | serum alanine aminotransferase (ALT) ([3]; 100 μg/kg daily s.c., 21 days): increased | weight gain ([3]; 100 μg/kg daily s.c., 21 days, vs saline): slowed normal mouse weight gain progression; also recorded: gained less weight | Col1a1+ve myofibroblasts in the liver ([3]; Col1a1-GFP reporter mice): accumulated GFP-expressing Col1a1^+ve myofibroblasts in the liver

B2: hyperIL11: IL11RA:IL11 fusion protein mimicking the trans-signalling complex, SEQ ID NO:21 (protein)
chain: MSSSCSGLSRVLVAVATALVSASSPCPQAWGPPGVQYGQPGRSVKLCCPGVTAGDPVSWFRDGEPKLLQGPDSGLGHELVLAQADSTDEGTYICQTLDGALGGTVTLQLGYPPARPVVSCQAADYENFSCTWSPSQISGLPTRYLTSYRKKTVLGADSQRRSPSTGPWPCPQDPLGAARCVVHGAEFWSQYRINVTEVNPLGASTRLLDVSLQSILRPDPPQGLRVESVPGYPRRLRASWTYPASWPCQPHFLLKFRLQYRPAQHPAWSTVEPAGLEEVITDAVAGLPHAVRVSARDFLDAGTWSTWSPEAWGTPSTGPAGQSGGGGGSGGGSGGGSVPGPPPGPPRVSPDPRAELDSTVLLTRSLLADTRQLAAQLRDKFPADGDHNLDSLPTLAMSAGALGALQLPGVLTRLRADLLSYLRHVQWLRRAGGSSLKTLEPELGTLQARLDRLLRRLQLLMSRLALPQPPPDPPAPPLAPPSSAWGGIRAAHAILGGLHLTLDWAVRGLLLLKTRL
modifications: Hyper IL-11 (IL-11RAIL-11 fusion)
IL-11 secretion from HSCs (HSCs): secreted IL-11 | ERK and JNK (non-canonical signaling) activation ([2]; 24 h): activated ERK and JNK in a dose-dependent manner | alanine transaminase (ALT) in the media ([2]; dose range, 24 h): dose-dependent increase

B3: sIL11RA: soluble IL11RA, human IL11RA (R&D systems), to potentiate putative trans-signaling (protein, UniProt Q14626 24-370, looked up)
extracellular domain: SPCPQAWGPPGVQYGQPGRSVKLCCPGVTAGDPVSWFRDGEPKLLQGPDSGLGHELVLAQADSTDEGTYICQTLDGALGGTVTLQLGYPPARPVVSCQAADYENFSCTWSPSQISGLPTRYLTSYRKKTVLGADSQRRSPSTGPWPCPQDPLGAARCVVHGAEFWSQYRINVTEVNPLGASTRLLDVSLQSILRPDPPQGLRVESVPGYPRRLRASWTYPASWPCQPHFLLKFRLQYRPAQHPAWSTVEPAGLEEVITDAVAGLPHAVRVSARDFLDAGTWSTWSPEAWGTPSTGTIPKEIPAWGQLHTQPEVEPQVDSPAPPRPSLQPHPRLLDHRDSVEQVAVLA
modifications: extracellular domain
IL11-induced hepatocyte death and signaling ([2]; IL11 20 ng/ml, sgp130 or sIL11RA 1 μg/ml): unaffected | ALT release from IL11-stimulated hepatocytes ([2]; increasing doses of sgp130 or sIL11RA): no effect | IL11 dose-dependent hepatocyte cell death on addition of decoy ([2]; sgp130 or sIL11RA 1 μg/ml): unaffected
